The target of one assay is T1, 4H3625-AA.
T1 chain: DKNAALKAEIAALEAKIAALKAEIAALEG
In words: two-hybrid library CCmax.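 Also: natural log of median RNA to DNA barcode read ratio; higher means stronger binding.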

The next assay has as its target T2, 4H3664-AA.
T2 chain: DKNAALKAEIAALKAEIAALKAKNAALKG
In words: two-hybrid library CCmax.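 Also: natural log of median RNA to DNA barcode read ratio; higher means stronger binding.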 The following applies: mean of both orientations.

For another assay, the target named is T3, 4H369-AA.
T3 chain: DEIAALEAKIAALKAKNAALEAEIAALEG
The assay is described as follows: two-hybrid library CCmax.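 Also: natural log of median RNA to DNA barcode read ratio; higher means stronger binding.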 The note with it: mean of both orientations.

For a further assay, the target named is T4, 4H384-AA.
T4 chain: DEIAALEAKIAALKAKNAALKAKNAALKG
In words: two-hybrid library CCmax.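 Also: natural log of median RNA to DNA barcode read ratio; higher means stronger binding.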 The following applies: mean of both orientations.

A further assay has as its target T5, 4H390-AA.
T5 chain: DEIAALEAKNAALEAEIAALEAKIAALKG
The assay is described as follows: two-hybrid library CCmax.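 Also: natural log of median RNA to DNA barcode read ratio; higher means stronger binding.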 The following applies: mean of both orientations.

In a further assay the target is T6, 4H3905-AA.
T6 chain: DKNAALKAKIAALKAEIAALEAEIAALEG
In words: two-hybrid library CCmax.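 Also: natural log of median RNA to DNA barcode read ratio; higher means stronger binding.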 The following applies: mean of both orientations.

For another assay, the target named is T7, 4H3922-AA.
T7 chain: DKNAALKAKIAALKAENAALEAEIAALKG
In words: two-hybrid library CCmax. The note with it: mean of both orientations.

The next assay concerns the target T8, 4H3940-AA.
T8 chain: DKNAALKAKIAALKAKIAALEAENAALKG
The assay is described as follows: two-hybrid library CCmax. The following applies: mean of both orientations.

In the next assay the target is T9, 4H4033-AA.
T9 chain: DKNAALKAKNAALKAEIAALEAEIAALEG
In words: two-hybrid library CCmax. The following applies: mean of both orientations.

In another assay the target is T10, 4H4038-AA.
T10 chain: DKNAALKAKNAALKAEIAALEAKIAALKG
In words: two-hybrid library CCmax. The following applies: mean of both orientations.

In a further assay the target is T11, 4H43-AA.
T11 chain: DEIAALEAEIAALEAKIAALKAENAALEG
The assay is described as follows: two-hybrid library CCmax. The following applies: mean of both orientations.

The target of the next assay is T12, 4H451-AA.
T12 chain: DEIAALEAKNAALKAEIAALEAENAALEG
The assay is described as follows: two-hybrid library CCmax. The note with it: mean of both orientations.

Another assay concerns the target T13, 4H481-AA.
T13 chain: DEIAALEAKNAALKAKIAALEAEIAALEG
The assay is described as follows: two-hybrid library CCmax. The note with it: mean of both orientations.

For a further assay, the target named is T14, 4H510-AA.
T14 chain: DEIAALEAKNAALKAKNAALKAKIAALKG
The assay is described as follows: two-hybrid library CCmax. The note with it: mean of both orientations.

The target in another assay is T15, 4H55-AA.
T15 chain: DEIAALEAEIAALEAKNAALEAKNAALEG
In words: two-hybrid library CCmax. The note with it: mean of both orientations.

Another assay deals with T16, 4H662-AA.
T16 chain: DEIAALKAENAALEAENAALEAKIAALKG
In words: two-hybrid library CCmax. The following applies: mean of both orientations.

Another assay deals with T17, 4H775-AA.
T17 chain: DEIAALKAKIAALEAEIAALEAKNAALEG
The assay is described as follows: two-hybrid library CCmax. The note with it: mean of both orientations.

Another assay addresses T18, 4H816-AA.
T18 chain: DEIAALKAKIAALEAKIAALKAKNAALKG
The assay is described as follows: two-hybrid library CCmax. The note with it: mean of both orientations.

The target of the next assay is T19, 4H87-AA.
T19 chain: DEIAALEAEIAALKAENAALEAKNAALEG
The assay is described as follows: two-hybrid library CCmax. The following applies: mean of both orientations.

The target in another assay is T20, 4H_APH.
T20 chain: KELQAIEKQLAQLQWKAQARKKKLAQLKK
In words: two-hybrid library CCmax. The following applies: mean of both orientations.

The next assay deals with T21, 4H_BCR.
T21 chain: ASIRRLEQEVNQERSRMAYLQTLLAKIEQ
In words: two-hybrid library CCmax. The following applies: mean of both orientations.

The target in a further assay is 4H_GCN4. The assay is described as follows: two-hybrid library CCmax. The following applies: mean of both orientations.
Sequence of 4H_GCN4 (chain, as listed by the source): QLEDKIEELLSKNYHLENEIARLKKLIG
The target of a further assay is GCN2_T. In words: two-hybrid library CCmax.
The target in another assay is T22, O11-AA.
T22 chain: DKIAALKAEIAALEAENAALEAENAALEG
In words: two-hybrid library CCmax. The note with it: mean of both orientations.

The next assay has as its target T23, O13-AA.
T23 chain: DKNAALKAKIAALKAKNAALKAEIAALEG
The assay is described as follows: two-hybrid library CCmax. The following applies: mean of both orientations.

For a further assay, the target named is T24, O14-AA.
T24 chain: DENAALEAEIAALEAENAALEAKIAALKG
The assay is described as follows: two-hybrid library CCmax. The following applies: mean of both orientations.

The next assay concerns the target T25, zCON9_B.
T25 chain: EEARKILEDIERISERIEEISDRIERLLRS
The assay is described as follows: two-hybrid library CCmax.

The target of another assay is T26, zCON9_D.
T26 chain: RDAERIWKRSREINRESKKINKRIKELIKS
The assay is described as follows: two-hybrid library CCmax.

The target in the next assay is T27, 4H346-bH.
T27 chain: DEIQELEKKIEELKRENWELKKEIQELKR
In words: two-hybrid library CCNG1.

In a further assay the target is T28, 4H3926-bH.
T28 chain: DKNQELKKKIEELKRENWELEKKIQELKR
The assay is described as follows: two-hybrid library CCNG1.

Another assay addresses T29, 4H4073-bH.
T29 chain: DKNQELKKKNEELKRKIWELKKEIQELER
The assay is described as follows: two-hybrid library CCNG1.

Another assay deals with T30, 4H457-bH.
T30 chain: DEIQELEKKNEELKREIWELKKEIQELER
The assay is described as follows: two-hybrid library CCNG1.

The target in another assay is T31, 4H575-bH.
T31 chain: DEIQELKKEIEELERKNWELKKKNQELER
The assay is described as follows: two-hybrid library CCNG1.

The target in a further assay is T32, 4H683-bH.
T32 chain: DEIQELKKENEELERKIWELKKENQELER
In words: two-hybrid library CCNG1.

The next assay concerns the target T33, 4H754-bH.
T33 chain: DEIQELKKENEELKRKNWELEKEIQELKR
The assay is described as follows: two-hybrid library CCNG1.

The next assay addresses T34, 4H780-bH.
T34 chain: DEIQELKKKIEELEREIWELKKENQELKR
The assay is described as follows: two-hybrid library CCNG1.

The target of another assay is T35, 4H797-bH.
T35 chain: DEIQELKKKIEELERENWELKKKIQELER
The assay is described as follows: two-hybrid library CCNG1.

In the next assay the target is T36, 4H850-bH.
T36 chain: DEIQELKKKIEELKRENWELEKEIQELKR
The assay is described as follows: two-hybrid library CCNG1.

A further assay addresses T37, 4H855-bH.
T37 chain: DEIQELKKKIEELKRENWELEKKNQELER
The assay is described as follows: two-hybrid library CCNG1.

A further assay deals with T38, 4H918-bH.
T38 chain: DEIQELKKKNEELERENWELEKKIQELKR
In words: two-hybrid library CCNG1.

A further assay deals with T39, 4H953-bH.
T39 chain: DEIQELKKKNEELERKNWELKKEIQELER
In words: two-hybrid library CCNG1.

The next assay deals with T40, 4H968-bH.
T40 chain: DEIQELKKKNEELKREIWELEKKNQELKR
The assay is described as follows: two-hybrid library CCNG1.

On to DKNAALKAEIAALEAKIAALKAEIAALEG [4H3625-AA], for which the interaction score was 2.27 with 4H3625-AA; -0.0768 with 4H3664-AA; -0.703 with 4H369-AA; -1.24 in the assay with 4H384-AA; 1.54 with 4H390-AA; 2.29 with 4H3905-AA. Moreover, the interaction score is 0.185 in the assay with 4H3922-AA; -0.199 with 4H3940-AA; -0.401 with 4H4033-AA; 1.61 in the assay with 4H4038-AA; 1.85 with 4H43-AA; -1.64 in the assay with 4H451-AA. In addition, the interaction score in the assay with 4H481-AA is -0.502; in the assay with 4H510-AA it was -1.93; with 4H55-AA it was -1.29; in the assay with 4H662-AA, -1.3; with 4H775-AA, 0.881; in the assay with 4H816-AA, 1.38. In addition, the interaction score was -0.904 with 4H87-AA; -1.59 in the assay with 4H_APH; -1.17 with 4H_BCR; -0.702 with 4H_GCN4; -0.674 in the assay with GCN2_T; -1.53 with O11-AA. In addition, the figures for the interaction score with O13-AA and in the assay with O14-AA were -1.47 and 1.44, respectively.

Take PKKEAEELAEESEELHDRSEKLHERAEQ [zCON9_A]: the interaction score with zCON9_B is -2.01; with zCON9_D, -2.12.

For DEIQELEKKIEELKRENWELKKEIQELKR [4H346-bH], the interaction score in the assay with 4H346-bH is 0.99; with 4H3926-bH it was 1.28; with 4H4073-bH it was -0.154; with 4H457-bH, 0.311; with 4H575-bH, -0.18; in the assay with 4H683-bH, -1.17. The interaction score with 4H754-bH was -0.0538; with 4H780-bH, 0.0507; with 4H797-bH, 0.329; with 4H850-bH it was -3.53; with 4H855-bH it was 0.532; in the assay with 4H918-bH, -3.17. The interaction score is 0.155 with 4H953-bH and -0.466 with 4H968-bH.

The values are drawn from publication PMC10397247.
